# B1: Gal4 activation domain alone (pGAD GH without DsRed) (other, UniProt P04386 768-881, looked up)
# chain: ANFNQSGNIADSSLSFTFTNSSNGPNLITTQTNSQALSQPIASSNVHDNFMNNEITASKIDDGNNSKPLSPGWTDQTAYNAFGITTGMFNTTTMDDVYNYLFDDEDTPPNPKKE
# notes: range 768-881; Negative control of the two hybrid assay
# B2: dimer2 (Discosoma variant red fluorescent protein) (other)
# chain: MRGSHHHHHHGMASMTGGQQMGRDLYDDDDKDPMVASSEDVIKEFMRFKVRMEGSVNGHEFEIEGEGEGRPYEGTQTAKLKVTKGGPLPFAWDILSPQFQYGSKAYVKHPADIPDYKKLSFPEGFKWERVMNFEDGGVVTVTQDSSLQDGTLIYKVKFRGTNFPPDGPVMQKKTMGWEASTERLYPRDGVLKGEIHQALKLKDGGHYLVEFKTIYMAKKPVQLPGYYYVDTKLDITSHNEDYTIVEQYERSEGRHHLFL
# notes: Protomer; forms an AC dimer
# B3: DsRed-I125R (other)
# chain: MRGSHHHHHHGMASMTGGQQMGRDLYDDDDKDPMRSSKNVIKEFMRFKVRMEGTVNGHEFEIEGEGEGRPYEGHNTVKLKVTKGGPLPFAWDILSPQFQYGSKVYVKHPADIPDYKKLSFPEGFKWERVMNFEDGGVVTVTQDSSLQDGCFIYKVKFRGVNFPSDGPVMQKKTMGWEASTERLYPRDGVLKGEIHKALKLKDGGHYLVEFKSIYMAKKPVQLPGYYYVDSKLDITSHNEDYTIVEQYERTEGRHHLFL
# notes: Protomer
# B4: T1 (Discosoma sp. variant fast T1 red fluorescent protein) (other)
# chain: MRGSHHHHHHGMASMTGGQQMGRDLYDDDDKDPMASSEDVIKEFMRFKVRMEGSVNGHEFEIEGEGEGRPYEGTQTAKLKVTKGGPLPFAWDILSPQFQYGSKVYVKHPADIPDYKKLSFPEGFKWERVMNFEDGGVVTVTQDSSLQDGSFIYKVKFIGVNFPSDGPVMQKKTMGWEASTERLYPRDGVLKGEIHKALKLKDGGHYLVEFKSIYMAKKPVQLPGYYYVDSKLDITSHNEDYTIVEQYERAEGRHHLFL
# notes: Protomer of a tetramer; also called fast tetramer T1; DsRed-Express
# B5: DsRed obligate tetramer (polyHis-tagged) (other)
# chain: MRGSHHHHHHGMASMTGGQQMGRDLYDDDDKDPMRSSKNVIKEFMRFKVRMEGTVNGHEFEIEGEGEGRPYEGHNTVKLKVTKGGPLPFAWDILSPQFQYGSKVYVKHPADIPDYKKLSFPEGFKWERVMNFEDGGVVTVTQDSSLQDGCFIYKVKFIGVNFPSDGPVMQKKTMGWEASTERLYPRDGVLKGEIHKALKLKDGGHYLVEFKSIYMAKKPVQLPGYYYVDSKLDITSHNEDYTIVEQYERTEGRHHLFL
# notes: The tetramer as a unit, for the fitted tetramer-to-octamer dissociation constant; also called tetramer of polyHis-tagged DsRed
# B6: T1 DsRed-I125R (other)
# chain: MRGSHHHHHHGMASMTGGQQMGRDLYDDDDKDPMASSEDVIKEFMRFKVRMEGSVNGHEFEIEGEGEGRPYEGTQTAKLKVTKGGPLPFAWDILSPQFQYGSKVYVKHPADIPDYKKLSFPEGFKWERVMNFEDGGVVTVTQDSSLQDGSFIYKVKFRGVNFPSDGPVMQKKTMGWEASTERLYPRDGVLKGEIHKALKLKDGGHYLVEFKSIYMAKKPVQLPGYYYVDSKLDITSHNEDYTIVEQYERAEGRHHLFL
# notes: Protomer; forms a dimer; also called T1-I125R
# B7: DsRed I125K (other)
# chain: MRGSHHHHHHGMASMTGGQQMGRDLYDDDDKDPMRSSKNVIKEFMRFKVRMEGTVNGHEFEIEGEGEGRPYEGHNTVKLKVTKGGPLPFAWDILSPQFQYGSKVYVKHPADIPDYKKLSFPEGFKWERVMNFEDGGVVTVTQDSSLQDGCFIYKVKFKGVNFPSDGPVMQKKTMGWEASTERLYPRDGVLKGEIHKALKLKDGGHYLVEFKSIYMAKKPVQLPGYYYVDSKLDITSHNEDYTIVEQYERTEGRHHLFL
# notes: Protomer; mixture of dimer and tetramer
# B8: tandem DsRed (tDsRed) (other)
# chain: MRGSHHHHHHGMASMTGGQQMGRDLYDDDDKDPMRSSKNVIKEFMRFKVRMEGTVNGHEFEIEGEGEGRPYEGHNTVKLKVTKGGPLPFAWDILSPQFQYGSKVYVKHPADIPDYKKLSFPEGFKWERVMNFEDGGVVTVTQDSSLQDGCFIYKVKFIGVNFPSDGPVMQKKTMGWEASTERLYPRDGVLKGEIHKALKLKDGGHYLVEFKSIYMAKKPVQLPGYYYVDSKLDITSHNEDYTIVEQYERTEGRHHLFLGSTSGSGKPGSGEGSTKGMRSSKNVIKEFMRFKVRMEGTVNGHEFEIEGEGEGRPYEGHNTVKLKVTKGGPLPFAWDILSPQFQYGSKVYVKHPADIPDYKKLSFPEGFKWERVMNFEDGGVVTVTQDSSLQDGCFIYKVKFIGVNFPSDGPVMQKKTMGWEASTERLYPRDGVLKGEIHKALKLKDGGHYLVEFKSIYMAKKPVQLPGYYYVDSKLDITSHNEDYTIVEQYERTEGRHHLFL
# B9: tandem DsRed-I125R (tDsRed-I125R) (other)
# chain: MRGSHHHHHHGMASMTGGQQMGRDLYDDDDKDPMRSSKNVIKEFMRFKVRMEGTVNGHEFEIEGEGEGRPYEGHNTVKLKVTKGGPLPFAWDILSPQFQYGSKVYVKHPADIPDYKKLSFPEGFKWERVMNFEDGGVVTVTQDSSLQDGCFIYKVKFRGVNFPSDGPVMQKKTMGWEASTERLYPRDGVLKGEIHKALKLKDGGHYLVEFKSIYMAKKPVQLPGYYYVDSKLDITSHNEDYTIVEQYERTEGRHHLFLGSTSGSGKPGSGEGSTKGMRSSKNVIKEFMRFKVRMEGTVNGHEFEIEGEGEGRPYEGHNTVKLKVTKGGPLPFAWDILSPQFQYGSKVYVKHPADIPDYKKLSFPEGFKWERVMNFEDGGVVTVTQDSSLQDGCFIYKVKFRGVNFPSDGPVMQKKTMGWEASTERLYPRDGVLKGEIHKALKLKDGGHYLVEFKSIYMAKKPVQLPGYYYVDSKLDITSHNEDYTIVEQYERTEGRHHLFL
# How the values were obtained:
# [1] = target: T1, DsRed fused downstream of the Gal4 DNA binding domain (pGBT9) (Discosoma sp.); assay: yeast two hybrid, negative control
# T1 construct: range 1-147; also called DsRed-prey
# Description: Yeast two hybrid assays were also performed. […] Alternatively, the yeast were grown on filters placed on plates lacking tryptophan and leucine to select for the bait and prey plasmids. After overnight growth, the filters were removed from the plates, frozen in liquid nitrogen, thawed, and incubated in X-gal overnight at 30° C. and two days at 4° C. to test for β-galactosidase activity (assayed by blue color development).
# [2] = target: the molecule itself; assay: analytical equilibrium ultracentrifugation, self-association
# Description: The data were analyzed globally at 10K, 14K, and 20K rpm by nonlinear least-squares analysis using the ORIGIN software package supplied by Beckman. The goodness of fit was evaluated on the basis of the magnitude and randomness of the residuals, expressed as the difference between the experimental data and the theoretical curve and also by checking each of the fit parameters for physical reasonability.
# [3] = target: the molecule itself; assay: oligomeric state of the mutant, self-association
# [4] = target: the molecule itself; assay: fluorescence excitation spectra, FRET within the oligomer
# Description: Absorption/Fluorescence Spectra and Extinction Coefficients—Fluorescence spectra were taken with a Fluorolog spectrofluorimeter (Spex Industries, Edison, N.J.). Absorbance spectra of proteins were taken with a Cary ITV-V is spectrophotometer. […] Corrections were included in the quantum yield calculation for the refractive index difference between ethanol and water. For extinction coefficient determination, native protein absorbance was measured with the spectrophotometer, and protein concentration was measured by the BCA method (Pierce).
# [5] = target: the molecule itself; assay: analytical equilibrium centrifugation; model in which the tetramer dimerizes into an octamer
# Description: The data were analyzed globally at 10,000, 14,000, and 20,000 rpm by nonlinear least-squares analysis using the Origin software package (Beckman). The goodness of fit was evaluated on the basis of the magnitude and randomness of the residuals, expressed as the difference between the experimental data and the theoretical curve and also by checking each of the fit parameters for physical reasonability.
# [6] = target: the molecule itself; assay: non-denaturing polyacrylamide gel electrophoresis, self-association
# Description: The mutant proteins were prepared following standard methodology and analyzed with polyacrylamide gel electrophoresis as described (Baird et al., supra, 2000). […] This solution was centrifuged in a Beckman XL-1 analytical ultracentrifuge in PBS at 10,000 rpm, 12,000 rpm, 14,000 rpm, and 20,000 rpm.
# No attempt was made to disrupt the A:B and C:D interfaces.
# [7] = target: the molecule itself; assay: SDS-PAGE without boiling, self-association
# [8] = target: the molecule itself; assay: SDS-PAGE with and without boiling, intermolecular self-association
binder,measurement,setting,value
B1,binding result,[1],no binding
B2,binding result,[2],binds
B3,binding result,[3],binds
B4,binding result,[4],binds
B5,Kd,[5],39 µM
B6,binding result,[3],binds
B7,binding result,[6],binds
B8,binding result,[7],binds
B9,binding result,[8],no binding

# — US20100227400A1 (published 2010)
